Experimental data published in patent US20120253017A1 (published 2012).
Like-named read-outs stand apart in the source and are kept apart here. Values belong to the binder of their own block, whether it stands above or below them.

Assays:
[1] = molecular target: T1, human c-kit (recombinant, on BIAcore chip or beads) (human, UniProt P10721 26-524); assay: BIAcore, c-kit on SA chip
T1 construct: extracellular domain; also called hcKIT; biotinylated human c-kit
Experimental: (§1) All unique dAb clones were expressed in 50 ml cultures (OnEX plus carbenicillin) overnight at 37° C. and purified on protein A (VH dAbs) or protein L (VK dAbs). Purified dAbs were passed over a SA BIAcore chip coated with either human or mouse c-kit at 1 μM to identify those dAbs that bound specifically to either human or murine c-kit.

[2] = molecular target: T2, cyno c-kit (recombinant, on BIAcore chip) (cynomolgus monkey); assay: BIAcore, c-kit on SA chip
T2 chain: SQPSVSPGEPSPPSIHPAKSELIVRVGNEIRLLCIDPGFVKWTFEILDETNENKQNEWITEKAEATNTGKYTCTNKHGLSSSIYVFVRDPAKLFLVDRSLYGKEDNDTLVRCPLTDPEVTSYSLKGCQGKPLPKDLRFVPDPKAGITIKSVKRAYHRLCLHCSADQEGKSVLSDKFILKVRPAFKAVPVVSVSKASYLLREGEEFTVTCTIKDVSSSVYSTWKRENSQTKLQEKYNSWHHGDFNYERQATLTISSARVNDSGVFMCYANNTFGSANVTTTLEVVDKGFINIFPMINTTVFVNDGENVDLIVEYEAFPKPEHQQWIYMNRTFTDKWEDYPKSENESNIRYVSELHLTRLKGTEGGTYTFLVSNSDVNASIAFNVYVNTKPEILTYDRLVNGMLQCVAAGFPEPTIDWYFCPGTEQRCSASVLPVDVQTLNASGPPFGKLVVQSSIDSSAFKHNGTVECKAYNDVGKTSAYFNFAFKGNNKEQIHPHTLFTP

[3] = molecular target: T1, human c-kit (recombinant, on BIAcore …); assay: BIAcore, dAb at 1000 and 500 nM
Experimental: Unique dAbs were expressed as bacterial supernatants in 2.5 L shake flasks in Onex media at 37° C. for 24 hrs at 250 rpm. dAbs were purified from the culture media by absorption to protein A or L agarose followed by elution with 10 mM glycine pH2.0.

[4] = molecular target: T3, human Stem Cell Factor, 6xHIS tag (human, UniProt P21583 26-190, limits assumed); assay: BIAcore, SCF on CM5 chip
T3 construct: also called hSCF; human SCF
Experimental: (§2) Human and murine SCF were covalently attached to a CM5 BIAcore chip (GE Healthcare) in the presence of acetate pH 4 for both antigens. cKIT from various species were diluted to 1 μM in HBS-EP buffer (GE Healthcare) and run on the BIAcore in a 2-fold serial dilution to 1 nM.
(§3) Anti-human and anti-mouse SCF monoclonal antibodies (mAb) were used as controls (R&D systems).

[5] = molecular target: T4, mouse Stem Cell Factor, 6xHIS tag (mouse, UniProt P20826 26-190, limits assumed); assay: BIAcore, SCF on CM5 chip
T4 construct: also called mSCF; murine SCF
T4 sequence (looked up): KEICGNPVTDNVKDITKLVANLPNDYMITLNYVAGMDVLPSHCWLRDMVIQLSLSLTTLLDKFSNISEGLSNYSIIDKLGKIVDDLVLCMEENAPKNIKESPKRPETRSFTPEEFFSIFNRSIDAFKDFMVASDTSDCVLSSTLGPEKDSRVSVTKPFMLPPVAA
Experimental: as §2, §3

[6] = molecular target: T5, human c-kit on HEL-92.1.7 and KU812 cells (human, UniProt P10721 26-976); assay: flow cytometry, HEL-92.1.7 cells
T5 construct: whole, on cells

rat cKIT ECD = molecular target: T6, rat cKIT ECD (rat, UniProt Q63116 25-526); assay: BIAcore, bad fit
T6 construct: cloned into pDOM38, which provides a human IgG1 Fc; also called rcKIT; rckit; not shown: Human IgG1 Fc (and any linker) supplied by vector pDOM38

[7] = molecular target: T2, cyno c-kit (recombinant, on BIAcore …); assay: BIAcore, c-kit on SA chip
Experimental: as §1

[8] = molecular target: T1, human c-kit (recombinant, on BIAcore …); assay: BIAcore
[9] = molecular target: T1, human c-kit (recombinant, on BIAcore …); assay: BIAcore 2000, 1 uM dAb
Experimental: All binding data was performed on a BIAcore 2000 instrument at 1 uM of dAb concentration.

[10] = molecular target: T1, human c-kit (recombinant, on BIAcore …); assay: BIAcore 2000
[11] = molecular target: T5, human c-kit on HEL-92.1.7 and KU812 …; assay: flow cytometry, HEL-92.1.7 cells (also YES on c-kit negative Jurkat)
[12] = molecular target: T1, human c-kit (recombinant, on BIAcore …); assay: BIAcore; remark: listed apart in the source
[13] = molecular target: Myosin Light Chain (on streptavidin chip; vMLC1-sulfotag); assay: BIAcore, bad fit
[14] = molecular target: T1, human c-kit (recombinant, on BIAcore …); assay: BIAcore, bad fit

Myosin Light Chain (on streptavidin chip; vMLC1-sulfotag), sequence (chain, as listed by the source): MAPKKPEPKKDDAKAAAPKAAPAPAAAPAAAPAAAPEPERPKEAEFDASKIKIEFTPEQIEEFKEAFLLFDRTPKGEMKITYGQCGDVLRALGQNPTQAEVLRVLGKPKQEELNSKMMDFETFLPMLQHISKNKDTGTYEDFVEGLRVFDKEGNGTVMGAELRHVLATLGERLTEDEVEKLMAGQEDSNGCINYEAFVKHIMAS
T5 sequence (P10721 26-976): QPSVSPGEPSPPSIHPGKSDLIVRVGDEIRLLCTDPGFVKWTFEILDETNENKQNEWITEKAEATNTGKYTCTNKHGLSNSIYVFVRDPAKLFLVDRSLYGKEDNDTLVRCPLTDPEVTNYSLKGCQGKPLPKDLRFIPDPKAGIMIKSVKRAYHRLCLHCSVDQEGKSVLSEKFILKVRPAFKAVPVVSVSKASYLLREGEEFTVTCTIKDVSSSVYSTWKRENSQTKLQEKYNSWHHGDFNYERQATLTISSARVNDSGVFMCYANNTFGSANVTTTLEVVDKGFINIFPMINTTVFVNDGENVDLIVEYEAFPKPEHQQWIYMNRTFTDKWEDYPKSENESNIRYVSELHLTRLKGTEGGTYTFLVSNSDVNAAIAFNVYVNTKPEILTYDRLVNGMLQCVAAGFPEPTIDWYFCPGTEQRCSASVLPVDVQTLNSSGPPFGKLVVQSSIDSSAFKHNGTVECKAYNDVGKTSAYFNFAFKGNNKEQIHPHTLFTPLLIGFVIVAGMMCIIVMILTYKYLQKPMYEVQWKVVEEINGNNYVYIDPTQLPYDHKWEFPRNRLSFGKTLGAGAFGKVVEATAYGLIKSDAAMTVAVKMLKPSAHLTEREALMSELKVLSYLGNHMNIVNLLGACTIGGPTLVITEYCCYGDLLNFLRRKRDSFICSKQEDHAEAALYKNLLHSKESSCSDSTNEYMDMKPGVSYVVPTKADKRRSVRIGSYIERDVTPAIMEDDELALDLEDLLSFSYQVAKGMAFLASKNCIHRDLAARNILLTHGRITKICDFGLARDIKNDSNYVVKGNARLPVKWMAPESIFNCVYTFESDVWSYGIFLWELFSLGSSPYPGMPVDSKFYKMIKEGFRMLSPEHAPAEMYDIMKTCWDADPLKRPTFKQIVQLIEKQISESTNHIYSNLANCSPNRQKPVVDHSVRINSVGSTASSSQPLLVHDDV
T6 sequence (Q63116 entry or part of it limits assumed, form in doubt): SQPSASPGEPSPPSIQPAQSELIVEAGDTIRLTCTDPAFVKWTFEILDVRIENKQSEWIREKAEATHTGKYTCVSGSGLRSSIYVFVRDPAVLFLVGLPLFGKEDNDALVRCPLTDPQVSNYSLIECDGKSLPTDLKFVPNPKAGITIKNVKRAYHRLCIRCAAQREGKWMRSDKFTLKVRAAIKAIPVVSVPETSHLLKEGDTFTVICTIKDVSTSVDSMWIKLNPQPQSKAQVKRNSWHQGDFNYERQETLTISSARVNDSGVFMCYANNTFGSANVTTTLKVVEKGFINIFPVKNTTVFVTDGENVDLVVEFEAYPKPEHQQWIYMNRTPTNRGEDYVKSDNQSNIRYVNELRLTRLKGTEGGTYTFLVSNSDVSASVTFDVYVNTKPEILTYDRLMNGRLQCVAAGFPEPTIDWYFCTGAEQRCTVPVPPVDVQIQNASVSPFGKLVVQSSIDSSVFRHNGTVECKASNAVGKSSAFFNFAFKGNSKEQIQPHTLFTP

B2: DOM28h-5 (other)
chain: DIQMTQSPSSLSASVGDRVTITCRASQWIGTALTWYQQKPGKAPKLLIYRGSYLQSGVPSRFSGSGSGTDFTLTISSLQPEDFATYYCQQRYFHPYTFGQGTRVEIKR
notes: dAb, C-terminal FLAG tag (pDOM10); also called DOM28h-005
Kd [1]: 533 nM | Kd [2]: 550 nM | Kd [3]: 533 nM

B3: DOM28h-33 (other)
chain: EVQLLESGGGLVQPGGSLRLSCAVSGFTFWNYRMGWVRQAPGKGLEWVSSITPQGTHTYYADSVKGRFTISRDNSKNTLYLQMNSLRAEDTAVYYCAKILSMSENHFDYWGQGTLVTVSS
notes: dAb, C-terminal FLAG tag (pDOM10); also called DOM28h-033
Kd [1]: 48 nM | Kd [2]: 98.5 nM | Kd [3]: 48 nM

B4: Cyno cKIT ECD-H6 (receptor)
chain: SQPSVSPGEPSPPSIHPAKSELIVRVGNEIRLLCIDPGFVKWTFEILDETNENKQNEWITEKAEATNTGKYTCTNKHGLSSSIYVFVRDPAKLFLVDRSLYGKEDNDTLVRCPLTDPEVTSYSLKGCQGKPLPKDLRFVPDPKAGITIKSVKRAYHRLCLHCSADQEGKSVLSDKFILKVRPAFKAVPVVSVSKASYLLREGEEFTVTCTIKDVSSSVYSTWKRENSQTKLQEKYNSWHHGDFNYERQATLTISSARVNDSGVFMCYANNTFGSANVTTTLEVVDKGFINIFPMINTTVFVNDGENVDLIVEYEAFPKPEHQQWIYMNRTFTDKWEDYPKSENESNIRYVSELHLTRLKGTEGGTYTFLVSNSDVNASIAFNVYVNTKPEILTYDRLVNGMLQCVAAGFPEPTIDWYFCPGTEQRCSASVLPVDVQTLNASGPPFGKLVVQSSIDSSAFKHNGTVECKAYNDVGKTSAYFNFAFKGNNKEQIHPHTLFTP
Kd [4]: 369 nM | Kd [5]: 867 nM

B11: DMS5053 (chimeric MLC mAb-cKIT dAb, DOM28m-017) (bispecific antibody)
heavy: not shown
light: DIVMSQSPSSLAVSAGDKVTMSCKSSQSLLYSRTRKNYLAWYQQKPGQSPKLLIYWASTRQSGVPDRFTGSGSGTDFTLTISSVQAEDLAVYYCKQSYNLFTFGSGTKLEIKRTVAAPSVFIFPPSDEQLKSGTASVVCLLNNFYPREAKVQWKVDNALQSGNSQESVTEQDSKDSTYSLSSTLTLSKADYEKHKVYACEVTHQGLSSPVTKSFNRGEC
Kd [12]: 36000 nM | Kd [13]: 0.003 nM

B12: DMS5055 (chimeric MLC mAb-cKIT dAb, DOM28m-104) (bispecific antibody)
heavy: not shown
light: DIVMSQSPSSLAVSAGDKVTMSCKSSQSLLYSRTRKNYLAWYQQKPGQSPKLLIYWASTRQSGVPDRFTGSGSGTDFTLTISSVQAEDLAVYYCKQSYNLFTFGSGTKLEIKRTVAAPSVFIFPPSDEQLKSGTASVVCLLNNFYPREAKVQWKVDNALQSGNSQESVTEQDSKDSTYSLSSTLTLSKADYEKHKVYACEVTHQGLSSPVTKSFNRGEC
Kd [12]: 72 nM | Kd [13]: 0.124 nM

B13: DMS5057 (chimeric MLC mAb-cKIT dAb, DOM28m-109) (bispecific antibody)
heavy: not shown
light: DIVMSQSPSSLAVSAGDKVTMSCKSSQSLLYSRTRKNYLAWYQQKPGQSPKLLIYWASTRQSGVPDRFTGSGSGTDFTLTISSVQAEDLAVYYCKQSYNLFTFGSGTKLEIKRTVAAPSVFIFPPSDEQLKSGTASVVCLLNNFYPREAKVQWKVDNALQSGNSQESVTEQDSKDSTYSLSSTLTLSKADYEKHKVYACEVTHQGLSSPVTKSFNRGEC
Kd [12]: 318 nM | Kd [13]: 0.116 nM

B14: DMS5059 (chimeric MLC mAb-cKIT dAb, DOM28m-114) (bispecific antibody)
heavy: not shown
light: DIVMSQSPSSLAVSAGDKVTMSCKSSQSLLYSRTRKNYLAWYQQKPGQSPKLLIYWASTRQSGVPDRFTGSGSGTDFTLTISSVQAEDLAVYYCKQSYNLFTFGSGTKLEIKRTVAAPSVFIFPPSDEQLKSGTASVVCLLNNFYPREAKVQWKVDNALQSGNSQESVTEQDSKDSTYSLSSTLTLSKADYEKHKVYACEVTHQGLSSPVTKSFNRGEC
Kd [13]: 10 nM | Kd [14]: 8 nM

B15: DOM28h-43 (other)
chain: DIQMTQSPSSLSASVGDRVTITCRASSPIGESLKWYQQKPGKAPKLLIWGGSWLQSGVPSRFSGSGSGTDFTLTISSLQPEDFATYYCGPGRGWPLTFGQGTKVEIKR
notes: dAb, C-terminal FLAG tag (pDOM10); also called DOM28h-043
Kd [1]: 239 nM | Kd [2]: 345 nM

The remaining lines, values ahead:

Kd [1]: 21800 nM | Kd [2]: 19200 nM | Kd [3]: 21800 nM
B1: DOM28h-94 (other)
VH: EVQLLESGGGLVQPGGSLRLSCAASGFTFFPYAMGWVRQAPGKGLEWVSFISGRGDTTYYADSVKGRFTISRDNSKNTLYLQMNSLRAEDTAVYYCAKTATSDLWNFDYWGQGTLVTVSS
notes: VH dAb, C-terminal FLAG tag (pDOM10); also called DOM28h-094

binding result [6]: binds
B5: DOM28m-52 (other)
chain: EVQLLESGGGLVQPGGSLRLSCAASGFTFSSYNMSWVRQAPGKGLEWVSWISSSGLMTYYADSVKGRFTISRDNSKNTLYLQMNSLRAEDTAVYYCAKTSLGSHPSRRPFDYWGQGTLVTVSS
notes: dAb, C-terminal FLAG tag (pDOM10)

Kd [1]: 896 nM | Kd [2]: 10200 nM | Kd [3]: 896 nM
B6: DOM28h-84 (other)
chain: EVQLLESGGGLVQPGGSLRLSCAASGFTFSSYGMSWVRQAPGKGLEWVSWISGTGSGTYYADSVKGRFTISRDNSKNTLYLQMNSLRAEDTAVYYCAKGVPGNNRALFDYWGQGTLVTVSS
notes: dAb, C-terminal FLAG tag (pDOM10); also called DOM28h-084

Kd (rat cKIT ECD): 30 nM | Kd [7]: 29000 nM | Kd [1]: 7200 nM
B7: DOM28m-7 (other)
VH: EVQLLESGGGLVQPGGSLRLSCAASGFTFSNYAMGWVRQAPGKGLEWVSSISSSGFATYYADSVKGRFTISRDNSKNTLYLQMNSLRAEDTAVYYCAKSESRTFKAFDYWGQGTLVTVSS
notes: VH dAb, C-terminal FLAG tag (pDOM10); also called DOM28m-007

Kd [8]: 6000 nM | Kd (rat cKIT ECD): 25 nM | Kd [9]: 6000 nM | Kd [7]: 2720 nM | Kd [1]: 2900 nM
B8: DOM28m-23 (other)
VH: EVRLLESGGGLVQPGGSLRLSCAASGFTFRDYVMVWVRQAPGKGLEWVSAIAPTGGYTYYADSVKGRFTISRDNSKNTLYLQMNSLRAEDTAVYYCAKSLRTWLSEDLPFDYWGQGTLVTVSS
notes: VH dAb, C-terminal FLAG tag (pDOM10); also called DOM28m-023

binding result [10]: no binding (tested: 1 uM) | binding result [11]: binds
B9: DOM28m-73 (other)
chain: EVQLLESGGGLVQPGGSLRLSCAASGFTFKHYSMNWVRQAPGKGLEWVSRISPSGVSTYYADSVKGRFTISRDNSKNTLYLQMNSLRAEDTAVYYCAKIMNSHKADEFDYWGQGTLVTVSS
notes: as for B5

binding result [6]: binds
B10: DOM28m-47 (other)
VH: EVQLLESGGGLVQPGGSLRLSCAASGFTFEAYGMMWVRQAPGKGLEWVSSISHSGLITYYADSVKGRFTISRDNSKNTLYLQMNSLRAEDTAVYYCAENGPLRQNSYFDYWGQGTLVTVSS
notes: as for B5

binding result [6]: binds
B16: DOM28m-53 (other)
VH: EVQLLESGGGLVQPGGSLRLSCAASGFTFSDYMMMWVRQAPGKGLEWVSTIDHAGAVTYYADSVKGRFTISRDNSKNTLYLQMNSLRAEDTAVYYCAKNQPVWQANQSRRFDYWGQGTLVTVSS
notes: as for B5
